These results are taken from publication PMC9793359.

The target of experiment [1] is Flag-tagged nsp7 of SARS-CoV-2 (SARS-CoV-2) (UniProt P0DTD1). Briefly: co-IP.
For experiment [2], the target named is Flag-tagged nsp8 of SARS-CoV-2 (SARS-CoV-2) (UniProt P0DTD1). The experiment in a line: co-IP.

With “HA-tagged nsp12 T20E mutant (natural protein)”, the increase in co-precipitated complex against wild type in experiment [1] and in experiment [2] was 2 fold throughout.
Turning to “HA-tagged nsp12 T20A mutant (natural protein)”, the decrease in co-precipitated complex against wild type in experiment [1] and in experiment [2] was 33% each time.
